# Reference: patent US7585638B2, “Test system for measuring the interaction of STAT 6 with NCoA-1” (Boehringer Ingelheim International GmbH, priority 2001, dated 2009)
# B1: His-NCoA-1: His-tagged NCoA-1 fragment aa 212-463, expressed in E. coli, affinity purified, SEQ ID NO: 3 (protein)
# chain: MHHHHHHSSGLVPRGSGMKETAAAKFERQHMDSPDLGTDDDDKAMGYLWIQEACQRYEVMQCFTVSQPKSIQEDGEDFQSCLICIARRLPRPPAITGVESFMTKQDTTGKIISIDTSSLRAAGRTGWEDLVRKCIYAFFQPQGREPSYARQLFQEVMTRGTASSPSYRFILNDGTMLSAHTKCKLCYPQSPDMQPFIMGIHIIDREHSGLSPQDDSNSGMSIPRINPSVNPGISPAHGVTRSSTLPPSNNNMVSARVNRQQSSDLNSSSSHTNSSNNQGNFGCSPGNQIVANVALNQGQAGSLEHHHHHH
# modifications: His tag
# How the values were obtained:
# [1] = biological target: T1, interaction of STAT6 and NCoA-1 (Mus musculus, UniProt P70365); assay: GST pull-down assay of [35S]-labeled NCoA-1 with GST-STAT6-TAD in presence of peptides; assay type: binding, human; conditions: 100 μg peptide; 4 μg GST-STAT6-TAD; SDS-PAGE and fluorography
# T1 construct: made in house; host or cells: E. coli for GST-STAT6-TAD
# T1 sequence (P70365 whole entry): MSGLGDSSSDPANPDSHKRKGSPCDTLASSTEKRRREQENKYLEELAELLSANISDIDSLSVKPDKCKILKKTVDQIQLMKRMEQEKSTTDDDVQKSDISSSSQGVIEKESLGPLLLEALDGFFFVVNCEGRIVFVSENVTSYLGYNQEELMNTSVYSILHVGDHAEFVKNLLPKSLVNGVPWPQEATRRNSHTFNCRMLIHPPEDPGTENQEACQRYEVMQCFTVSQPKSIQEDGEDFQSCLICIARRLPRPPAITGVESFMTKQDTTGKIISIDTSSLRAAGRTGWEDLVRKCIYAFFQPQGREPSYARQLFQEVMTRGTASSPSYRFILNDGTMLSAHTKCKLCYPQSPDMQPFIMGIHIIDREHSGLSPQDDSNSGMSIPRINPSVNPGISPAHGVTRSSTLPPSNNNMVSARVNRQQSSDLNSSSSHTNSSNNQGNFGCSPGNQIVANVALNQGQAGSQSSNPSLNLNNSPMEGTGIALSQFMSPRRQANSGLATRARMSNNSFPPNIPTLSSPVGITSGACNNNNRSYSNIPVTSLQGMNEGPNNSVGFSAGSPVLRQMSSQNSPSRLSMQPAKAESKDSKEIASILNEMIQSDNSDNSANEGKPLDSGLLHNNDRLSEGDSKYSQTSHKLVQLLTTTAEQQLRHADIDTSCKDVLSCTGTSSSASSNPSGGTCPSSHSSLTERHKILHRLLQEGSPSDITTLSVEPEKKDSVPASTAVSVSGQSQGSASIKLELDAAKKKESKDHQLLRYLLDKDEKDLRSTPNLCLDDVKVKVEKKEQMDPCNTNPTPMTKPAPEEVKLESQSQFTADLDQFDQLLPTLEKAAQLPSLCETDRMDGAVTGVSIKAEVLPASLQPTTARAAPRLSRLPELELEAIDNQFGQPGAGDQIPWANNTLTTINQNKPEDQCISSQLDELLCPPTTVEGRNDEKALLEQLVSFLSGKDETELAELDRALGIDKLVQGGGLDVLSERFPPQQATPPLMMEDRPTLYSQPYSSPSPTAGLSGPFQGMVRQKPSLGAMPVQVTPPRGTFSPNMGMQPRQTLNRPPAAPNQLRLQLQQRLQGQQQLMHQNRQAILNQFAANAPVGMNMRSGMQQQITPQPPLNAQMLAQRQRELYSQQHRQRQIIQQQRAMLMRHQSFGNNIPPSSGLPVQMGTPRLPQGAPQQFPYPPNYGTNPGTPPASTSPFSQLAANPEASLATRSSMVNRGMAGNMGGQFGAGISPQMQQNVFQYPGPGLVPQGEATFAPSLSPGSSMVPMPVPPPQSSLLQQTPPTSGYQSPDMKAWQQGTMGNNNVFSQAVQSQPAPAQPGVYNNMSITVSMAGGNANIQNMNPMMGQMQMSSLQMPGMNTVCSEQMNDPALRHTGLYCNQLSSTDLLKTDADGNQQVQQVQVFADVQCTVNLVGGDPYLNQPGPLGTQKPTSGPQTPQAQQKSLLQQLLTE
# Procedure: 4 μg GST or GST-STAT6-TAD fusion protein purified from E. coli, are bound to 20 μl glutathione-Sepharose and are incubated with 1.5 μl [^35S]-labeled NCoA-1 in the presence of 100 μg peptide 1, or peptide 2, or peptide 3 respectively, as indicated. Material bound to the glutathione-Sepharose is recovered from the binding reaction, extensively washed and analyzed by SDS-PAGE and fluorography (lanes 2-6). Input control in lane 1 reflects 10% of the total amount of ^35S-labeled NCoA-1 used in the experiments.
# [2] = biological target: T2, GST-STAT6 (aa 677-847) (Homo sapiens, UniProt P42226); assay: STAT6/NCoA-1-ELISA (His-NCoA-1 bound to coated GST-STAT6); assay type: binding; conditions: 500 ng GST-STAT6 (677-847) coated, 250 ng His-NCoA-1 (212-463) added; α-Penta-His and α-mouse-HRP; average of three experiments
# T2 construct: made in house; host or cells: E. coli
# T2 sequence (P42226 with tags, fused parts or gaps): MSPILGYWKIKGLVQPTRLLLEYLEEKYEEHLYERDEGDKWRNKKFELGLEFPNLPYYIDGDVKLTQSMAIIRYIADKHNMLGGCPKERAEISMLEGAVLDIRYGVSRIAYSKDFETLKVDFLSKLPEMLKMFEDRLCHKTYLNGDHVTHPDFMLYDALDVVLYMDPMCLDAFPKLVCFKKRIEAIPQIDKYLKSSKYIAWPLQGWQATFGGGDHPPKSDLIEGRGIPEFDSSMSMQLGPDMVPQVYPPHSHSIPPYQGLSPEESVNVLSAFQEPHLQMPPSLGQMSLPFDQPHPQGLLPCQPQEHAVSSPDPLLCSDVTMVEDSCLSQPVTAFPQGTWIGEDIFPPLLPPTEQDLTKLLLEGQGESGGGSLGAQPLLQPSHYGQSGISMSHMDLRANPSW
# Procedure: The following is an illustration of how an interaction of STAT6 with NCoA-1 can be performed in order to identify a substance which can modulate said interaction.
# Substrate solution: dissolve a phosphate citrate buffer tablet (Sigma) in 100 ml water to obtain 0.05 M phosphate citrate buffer pH 5.5. Dissolve a tablet of o-Phenylendiamine dihydrochloride (Sigma) in 30 ml of phosphate citrate buffer in the dark. Prior to use add 30 μl of 30% H2O2. Recombinant Proteins: GST-STAT6 aa 677-847 and His-tagged NCoA-1 aa 212-463 are expressed in E. coli, purified by affinity-chromatografie and dialyzed against 1×PBS according to the art. Sequences of Recombinant Proteins: GST-STAT6 aa 677-847 protein, SEQ ID NO:1 His-tagged NCoA-1 aa 212-463, SEQ ID NO: 3 Antibodies: 1. Antibody: Penta-His, Quiagen (Cat. No. 34660) 2. […] Determine the optical density of each well within 15 minutes, using an ELISA reader set to […]. […]
# 500 ng of E. coli expressed and affinity purified GST-STAT6 TAD (amino acid, aa 677-847) is coated to 96 well ELISA-plates as indicated. After incubation with 250 ng of E. coli expressed, affinity purified His-NCoA-1 (aa 212-463), bound protein is detected by mouse anti-His-antibody and peroxidase coupled sheep anti-mouse-antibody as indicated. […] Conversion of peroxidase substrate O-phenylenediamine is measured at 492 nm. […]
Molecule,binding of GST-STAT6-TAD with NCoA-1 in presence of peptide [1],Extinction 493 nm [2]
"peptide 1: peptide derived from the STAT6 trans-activation domain, amino acid 794 to 814, SEQ ID NO: 6, contains LXXLL motif (LLPPTEQDLTKLLLEGQGESG; Part of SEQ ID 5; listed as Homo sapiens)",less binding,–
"peptide 2: peptide derived from the STAT6 trans-activation domain, amino acid 817 to 830 (SLGAQPLLQPSHYG; UniProt P42226 817-830, looked up, fragment)",does not alter the binding capacity of GST-STAT6-TAD with NCoA-1 significantly,–
"peptide 3: peptide derived from the STAT6 trans-activation domain, amino acid 830 to 847 (GQSGISMSHMDLRANPSW; UniProt P42226 830-847, looked up, fragment)",does not alter the binding capacity of GST-STAT6-TAD with NCoA-1 significantly,–
B1,–,0.795
